Reference: patent US20130251711A1

What was measured:
[1] = molecular target: KIR on patient NK cells (KIR2D receptors; KIR2DL1 and KIR2DL2/3); assay: receptor occupancy on patient NK cells by flow cytometry after a single i.v. dose of 0.0003 mg/kg (AML dose-escalation trial)
[2] = molecular target: KIR on patient NK cells (KIR2D receptors; KIR2DL1 and KIR2DL2/3); assay: receptor occupancy on patient NK cells by flow cytometry after a single i.v. dose of 0.003 mg/kg (AML dose-escalation trial)

- KIR occupancy [1]: 50%
- KIR occupancy [2]: 90%
Substance: anti-KIR antibody 1-7F9
